# Test results as given in PMC8973899.
# Target: BD-GmSPX8 (soybean (Glycine max))
substance,measurement,value
AD-GmPTF1 (natural protein),luciferase (LUC) signal of E-box-LUC in N. benthamiana leaves with PSK-GmPTF1 and PSK-GmSPX8 against PSK-GmPTF1 alone,50%
same,β-galactosidase activity of yeast cells AH109 with pGBKT7-BD-GmPTF1 and pGADT7-AD-GmSPX8 against pGBKT7-BD-GmPTF1 alone,2 times
